B1: TPR t1 (parent)
chain: GACCAAUCUGCCCUCAGAGCUCGAGAACAUCUUCGGAUGCAGAGGAGGCAGGCUUCGGUGGCGCGAUAGCGCCAACGUCCUCAACCUCCAAUGCAUCCCACCACAUGAUGAUGCCUGAAGAGCCUUGGUUUUUUG

Variants of: B1
Experiment: polymerase ribozyme fitness, log enrichment relative to wild type (log ratio); higher = more active; in vitro selection for triplet polymerase activity
Procedure, shortened: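 Streptavidin-bead capture of gel-excised extended constructs, followed by RT-PCR, closed a single triplicate in vitro selection round. That round began by annealing PCR-built, transcribed mutant libraries of each subunit of a heterodimeric triplet polymerase ribozyme with a biotinylated primer, the partner subunit and triplets, then incubating them frozen at −7 °C. After Illumina sequencing of inputs and outputs, genotypes needed ≥10 input reads and ≥1 read per output. Fitness is the base-2 logarithm of genotype enrichment over wild-type enrichment, using inverse-variance-weighted replicate averages.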

Row | Variant | polymerase ribozyme fitness (log ratio)
1 | GACCAAUCUGCCCUCAGAGCUCGAGAAUAUCUUCGGAUGCAGGGGAGGCAGGCUUCGGUGGCGCGAUAUCGCCAACGUCCUCAACCUCCAAUGCAUCCCACCACAUGAUGAUACCUGAAGAGCCUUGGUUUUUUG [C28U A43G G69U G113A] | -1.82
2 | GACCAAUCUGCCCUCAGAGCUCGAGAAGAUCUUCGGAUGCAGAGGAGGCAGGCUUCGGUGGCGCGAUAGCGCCAACGUCCUCAACCUCCAAUGCAUCCCACCACAUGAUGAUCCCUGAAGAGCCUUGGUUUUUUG [C28G G113C] | -6.23
3 | GACCAAUCUGCCCUCAGAGCUCGAGAAUAUCUUCGGAUGCAGAGGAGGCAGGCUUCGGUGGCGCGAUAGCGCCUACGUCCUCAACCUCCAAUGCAUCCCACCACAUGAUGAUGCCUGAAGAGCCUUGGUUUUUUG [C28U A74U] | -2.33
4 | GACCAAUCUGCCCUCAGAGCUCGAGAAUAUCUUCGGAUGCAGAGGAGGCAGGCUUCGGUGGCGCGAUAGCGCCAACGUCCUCAACCUCCAAUGCAUCCCACCACAUGAUGAUGCCUGAAGAGUCUUGGUUUUUUG [C28U C123U] | -0.507
5 | GACCAAUCUGCCCUCAGAGCUCGAGAAUAUCUUCGGAUGCAGAGGAGGUAGGCUUCGGUGGCGCGAUAGCGCCAACGUCCUCAACCUCCAAUGCAUCCCACCACAUGAUGAUGCCUGAAGAGCCUUGGUUUUUUG [C28U C49U] | -3.27
6 | GACCAAUCUGCCCUCAGAGCUCGAGAAGAUCUUCGGAUGCAGAGGAGGCAGGCUUCGGUGGCGCGAUAGCACCAACGUCCUCGACCGCCAAUGCAUCCCACCACAUGAUGAUGCCUGAUGAGCCUUGGUUUUUUG [C28G G71A A83G U87G A119U] | -5.64
7 | GACCAAUCUGCCCUCAGAGCUCGAGAAUAUCUUCGGAUGCAGAGGAGGCAGGCUUCGGUGGCGCGAUAGCGACAACGUCCUCAACCUCCAAUGCAUCCCACCACAUGAUGAUGCCUGAAGAGCCUUGGUUUUUUG [C28U C72A] | -2.49
8 | GACCAAUCUGCCCUCAGAGCUCGAGAAGAUCUUCGGAUGCAGAGGAGGCAGGCUUCGGUGGCGCGAUAGCGCCAACGUCCUCAACCUCCAAUGCAUCCCACCACAAGAUGAUGCCUCAAGAGCCUUGGUUUUUUG [C28G U106A G117C] | -5.9
9 | GACCAAUCUGCCCUCAGAGCUCGAGAAUAUCUUCGGAUGCAGAGGAGGCUGGCUUCGGUGGCGCGAUAGCGCCAACGUCCUCAACCUCCAAUGCAUCCCACCACAUGAUGAUGCCUGAAGAGCCUUGGUUUUUUG [C28U A50U] | -2.92
10 | GACCAAUCUGCCCUCAGAGCUCGAGAAGAUCUUCGGAUGCAGAGGAGGCAGGCUUCGGUGGCGCGAUAGCGCCAACGUCCUCAACCUCCAAUGCAUCCCACCACAUGAUGAUGCCUAAAGAGCCUUGGUUUUUUG [C28G G117A] | -4.12
11 | GACCAAUCUGCCCUCAGAGCUCGAGAAGAUCUUCGGAUGCAGACGAGGCAGUCUUCGGUGGCGCGAUAGCGCAAACGUCCUCAACCUCCAAUGCAUCCCACCACAUGAUAAUGCCUGAAGAGCCUUGGUUUUUUG [C28G G44C G52U C73A G110A] | -2.09
12 | GACCAAUCUGCCCUCAGAGCUCGAGAAUAUCUUCGGAUGCGGAGGAGGCAGGCUUCGGUGGCGCGAUAGCGCCAACGUCCUCAACCUCCAAUGCAUCCCACCACAUGAUGAUGCCUGAAGCGCCUUGGUUUUUUG [C28U A41G A121C] | -0.919
13 | GACCAAUCUGCCCUCAGAGCUCGAGAAUAUCUUCGGAUGCAGAGGAGGCAGGCUUCGGUGGCGCGAUAGCGCCAACGUCCUCAACCUCCAAUGCAUCCCACCACUUGAUGACGCCUGAAGAGCCUUGGUUUUUUG [C28U A105U U112C] | -4.9
14 | GACCAAUCUGCCCUCAGAGCUCGAGAAUAUCUUCGGAUGCAGAGGAGGCAGGCUUCGGUGGCGCGAUAGCGCCAACGUCCUCAACCUCCAAUGCAUCCCCCUACAUGAUGACGCCUGAAGAGCCUUGGUUUUUUG [C28U A100C C102U U112C] | -4.83
15 | GACCAAUCUGCCCUCAGAGCUCGAGAAGAUCUUCGGAUGCAGAGGAGGCAGGCUUCGGUGGCACGAUAGCGCUAACGUCCUCAACCUCCAAUGCAUCCCACCACAUGAUGAUGCCUGAAGAGCCUUGGUUUUUUG [C28G G63A C73U] | -3.78
16 | GACCAAUCUGCCCUCAGAGCUCGAGAAGAUCUUCGGAUGCAGAGGAGGCAGGCUUCGGUGGCGCGAUAUCGCCAACGUCCUCAACCUCCAGUGCAUCCCACCACAUGAUGAUGCCGGAAGAGCCUUGGUUUUUUG [C28G G69U A91G U116G] | -5.08
17 | GACCAAUCUGCCCUCAGAGCUCGAGAAGAUCUUCGGAUGCAGAAGGGGCAGGCUUCGGUGGCGCGAUAGCGCCAACGUCCUCAACCUCCCAUGCAUCCCACCACAUGAUGAUGCCUGAAGAGCCUUGGUUUUUUG [C28G G44A A46G A90C] | -4.5
18 | GACCAAUCUGCCCUCAGAGCUCGAGAAUAUCUUCGGAUGCAGAGGAGGCUGGCUUCGGUGGCGCGAUAGAGCCAACGUCCUCAACCUCCAAUGCAUCCCACCACAAGAUAAUGACUGAAGAGCCUUGGUUUUUUG [C28U A50U C70A U106A G110A C114A] | -5.71
19 | GACCAAUCUGCCCUCAGAGCUCGAGAAGAUCUUCGGAUGCAGAGGAGGCAGGCGUCGGUGGUGCGAUAGCGCCAACGUCCUCAACCUCCAAUGCAUCCCACCACAUGAUGAUGCCUGAAGAGCCUUGGUUUUUUG [C28G U54G C62U] | -3.83
20 | GACCAAUCUGCCCUCAGAGCUCGAGAAUAUCUUCGGAUGCAGAGGAGGCAGGCUUCGGUGGCGCGAUAGCGCUAACGUCCACAACCUCCAAUGCAUCCCACCACACGAUGAUGCCUGAAGAGCCUUGGUUUUUUG [C28U C73U U81A U106C] | -3.5
21 | GACCAAUCUGCCCUCAGAGCUCGAGAAUAUCUUCGGAUGCAGAGGAGGCAGGCUUCGGUGGAGCGAUAGCGCCAACGUCCUCAACCUCCAAUGCAUCCCACCACAUGAUGAUGCCUGAAGAGCGUUGGUUUUGUG [C28U C62A C124G U133G] | -2.2

Row | Variant | polymerase ribozyme fitness (log ratio)
22 | GACCAAUCUGCCCUCAGAGCUCGAGAAGAUCUUCGGAUGCAGAGGAGGCAGGCUUCGGUGGCGCGAUAGCGCCAACGUCCUCAACAUCCAAUGCAUCCCACCACAUGAUGAUGCCUGAACAGCCUUGGUUUUUUG [C28G C86A G120C] | -2.11
23 | GACCAAUCUGCCCUCAGAGCUCGAGAAUAUCUUCGGAUGCAGAGGAGGCAGGCUUCGGUGGCGCGAUAGCGCCAACGUCCUCAACCUCCAAUGCAUCCCACCACAUGAUGAUGCCUGAGGAGCCUUGGUUUUUUG [C28U A119G] | -1.04
24 | GACCAAUCUGCCCUCAGAGCUCGAGAAUAUCUUCGGAUGCAGAGGAGGCAGGCUUCGGUGGCGCGAUAGUGCCAACGUCCUCAACCUUCAAUGCAUCCCACCACAUGAUGAUGCCUGAAGAGCCUUGGUUUUUUG [C28U C70U C88U] | -3.74
25 | GACCAAUCUGCCCUCAGAGCUCGAGAAGAUCUUCGGAUGCAGAGGAGGCAGGCUUCGGUGGCGCGAUAGCGCCAACGUCCUCAACCUCCAAUGCAACCCACCACAUGAUGAUGCCUGAAGAGCCUUGGUUUUUUG [C28G U96A] | -3.94
26 | GACCAAUCUGCCCUCAGAGCUCGAGAAGAUCUUCGGAUGCAGAGGAGGCAGGCUUCGGUGGCGCGAUAGCGCCAACGUCCUCAACCUCCAAGGCAUCCCACCACAUGAUGAUGCCUAAAGGGCCUUGGUUUUUUG [C28G U92G G117A A121G] | -4.67
27 | GACCAAUCUGCCCUCAGAGCUCGAGAAUAUCUUCGGAUGCAGAGGAGGCAGGCUUCGGUGGCGCGAUAGCGCCAACGUCCUCAACAUCCAAUGCAUCCCACCACAUGAUGAUGCCUGAAGAGCCUUGGUUUUUUG [C28U C86A] | -2.8
28 | GACCAAUCUGCCCUCAGAGCUCGAGAAUAUCUUCGGAUGCAGAGGAGGCAGGAUUCGGUGGCGCGAUAGCGCCAACGUCCUCAACCUCCAAUUCAUCCCACCACAUGAUGAUGCCUGAAGAGCCUUGGUUUUUUG [C28U C53A G93U] | -4.15
29 | GACCAAUCUGCCCUCAGAGCUCGAGAAGAUCUUCGGAUGCAGAGGAGGCAGGCUUCGGUGGCGCGAUAGCGCCAACGUCCUCAACCUCCAAUGCAUCCCACCACAUCAGGAUGCCUGAAGAGCCUUGGUUUUUUG [C28G G107C U109G] | -6.09
30 | GACCAAUCUGCCCUCAGAGCUCGAGAAGAUCCUCGGAUGCAGAGGAGGCAGGCUUCGGUGGCGCGAUAGCGCCAACGUCCUCAACCUCCAAUGCAUCCCACCACAUGAUGAUGCCUGAAGAGCCUUGGUUUUUUG [C28G U32C] | -2.94
31 | GACCAAUCUGCCCUCAGAGCUCGAGAAUAUCUUCGGAUGCAGAGGAGGCAGGCUUCGGUGGCGCGAUAGCGCCAACGUUCUCAACCUCCAAUGCAUCCCACCACAUGAUGAUGCCUGAAGAGCCUUGGUUUUUUG [C28U C79U] | -1.61
32 | GACCAAUCUGCCCUCAGAGCUCGAGAAUAUCUUCGGAUGCAGAGGAGGCAGGCUUUGGUGGCGCGAUAGCGCCAACGUCCUCAACCUCCAAUGCAUCCCAUCACAUGAUGAUGCCUGAAUAGCCUUGGUUUUUUG [C28U C56U C101U G120U] | -2.65
33 | GACCAAUCUGCCCUCAGAGCUCGAGAAUAUCUUCGGAUGCAGAGGAGGAAGGCUUCGGUGGCGCGAUAGCGCCAACGUCCUCAACCUCCAAUGCAUCCCACCACAUGAUGAUCCCUGAAGAGCCUUGGUUUUUUG [C28U C49A G113C] | -3.97
34 | GACCAAUCUGCCCUCAGAGCUCGAGAAGAUCUUCGGAUGCAGAGGAGGCAGGCUUCGGUGGCGCGAUAGCGACAACGUCCUCAACCUCCAAUGCAUCCCACCACAUGAUGAUGCCUGAAGAGCCUUGGUUUUUUG [C28G C72A] | -3.15
35 | GACCAAUCUGCCCUCAGAGCUCGAGAAUAUCUUCGGCUGCAGAGGAGGCAGGCUUCGGUGGCGCGAUAGCUCCAACGUCCUCAACCUCCAAUGCAUCCCACCACAUGAUGAUGCCUGAAGAGCCUUGGUUUUUUG [C28U A37C G71U] | -3.01
36 | GACCAAUCUGCCCUCAGAGCUCGAGAAGAUCUUCGGAUGCAGAGUAGGCAGACUUCGGUGGCGCGAUAGCGCCAACGUCCUCAACCUCCAAUGCAUCCCACCACAUCAAGAUGCCUGAAGAGCAUUGGUUUUUUG [C28G G45U G52A G107C U109A C124A] | -5.94
37 | GACCAAUCUGCCCUCAGAGCUCGAGAAGAUCUUCGGAUGCAGAGGAGUCAGGCUUCGGUGGCGCGAUAGCGCCAACGUCCUCAACCUCCAAGGCAUCCCACCACAUGAUGAUGCCUGAAGAGCAUUGGUUUUUUG [C28G G48U U92G C124A] | -5.41
38 | GACCAAUCUGCCCUCAGAGCUCGAGAAGAUCUUCGGAUGCAGAGGAGGCAGGCUUCGGUGGCGCGAUAGCGCCAACGUCCUCAACCUCCAAUGCAAGCCACCACAUGAUGAUGCCUCAAGAGCCUUGGUUUUUUG [C28G U96A C97G G117C] | -8.14
39 | GACCAAUCUGCCCUCAGAGCUCGAGAAUAUCUUCGGAUGCAGAGGUGACAGGCUUCGGUGGCGCGAUAGCGCCAACGUCCUCAACCUCCAAUGCGUCCCACCACAUGAUGAUGCCUGAAGAGCGUUGGUUUUUUG [C28U A46U G48A A95G C124G] | -3.31
40 | GACCAAUCUGCCCUCAGAGCUCGAGAAUAUCUUCGGAUGAAGAGGAGGCAGGCUUCGGUGGCGCGAUAGCGCCAACGUCCUCAACCUCCAAUGCAUCCCACCACAUGAUGAUGCCUGAAGAGCUUUGGUAUUUUG [C28U C40A C124U U130A] | -3.36
41 | GACCAAUCUGCCCUCAGAGCUCGAGAAGAUCUUCGGAUGCAGAGGAGGCAGGCUUCGGUGGCGCGAUAGCGCUAACGUCCUCAACCUCCAAUGCAUCCCACCACAUGAUGAUGCCUGAGGAGCCUUGGUUUUUUG [C28G C73U A119G] | -1.62
42 | GACCAAUCUGCCCUCAGAGCUCGAGAAGAUCCUCGGAUGCAGAGGAGGCAGGCUUCGGUGGCGCGAUAGCGCCAACGUCCUCAACCUCCAUUGCAUCCCACCACAUGAUGAUGUCUGAGGAGCCUUGGUUUUUUG [C28G U32C A91U C114U A119G] | -6.71

— the RNAGym collection of RNA variant scans (doi:10.1073/pnas.2313332121)
